Columns and labels:
Test in all cases: SPOT array
[1] = biological target: T1, Boi1 SH3 (BOI1_YEAST), P38041
T1 chain: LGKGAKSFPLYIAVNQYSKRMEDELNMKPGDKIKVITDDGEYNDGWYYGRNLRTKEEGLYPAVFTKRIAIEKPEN

[2] = biological target: T2, Boi2 SH3 (BOI2_YEAST), P39969
T2 chain: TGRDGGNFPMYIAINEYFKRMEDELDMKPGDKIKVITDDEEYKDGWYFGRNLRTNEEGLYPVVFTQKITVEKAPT

[3] = biological target: T3, Myo5 SH3 (MYO5_YEAST), Q04439
T3 chain: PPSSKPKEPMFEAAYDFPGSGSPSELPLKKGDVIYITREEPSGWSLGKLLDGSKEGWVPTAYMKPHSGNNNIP

[4] = biological target: T4, Rvs167 SH3 (RV167_YEAST), P39743
T4 chain: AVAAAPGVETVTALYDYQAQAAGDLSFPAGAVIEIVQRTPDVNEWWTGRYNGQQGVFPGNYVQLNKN

[5] = biological target: Sho1 SH3 (SHO1_YEAST), P40073
Chain of Sho1 SH3 (SHO1_YEAST), P40073 (P40073 295-366): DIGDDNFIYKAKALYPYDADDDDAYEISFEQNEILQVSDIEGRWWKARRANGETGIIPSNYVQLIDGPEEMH

[6] = biological target: T5, Yfr024 SH3 (LSB3_YEAST), P43603
T5 chain: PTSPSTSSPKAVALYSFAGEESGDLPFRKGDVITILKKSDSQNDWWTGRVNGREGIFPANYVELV

[7] = biological target: T6, Yhr016c SH3 (YSC84_YEAST), P32793
T6 chain: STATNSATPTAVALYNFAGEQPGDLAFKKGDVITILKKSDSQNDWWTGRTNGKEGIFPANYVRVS

normalised SPOT signal, Boehringer light units (BLU); mean over the file's lines of this peptide [1]	normalised SPOT signal, Boehringer light units (BLU); mean over the file's lines of this peptide [2]	normalised SPOT signal, Boehringer light units (BLU); mean over the file's lines of this peptide [3]	normalised SPOT signal, Boehringer light units (BLU); mean over the file's lines of this peptide [4]	normalised SPOT signal, Boehringer light units (BLU); mean over the file's lines of this peptide [5]	normalised SPOT signal, Boehringer light units (BLU); mean over the file's lines of this peptide [6]	normalised SPOT signal, Boehringer light units (BLU); mean over the file's lines of this peptide [7]	Binder
800	108	622	3830	179	12300	1120	KQRIRKIPGIPLMS [YDR339C 161-174]
304	0.8	118	59.5	57.8	0	10.1	KNILKVSPVLPSIL [YMR247C 301-314]
36.2	16.7	27800	41	0	74.8	11.2	KNPTKSPPPPPSPS [YLR337C 698-711]
90.4	0	189	2260	115	4480	2860	KPAGRPIPPAPTHY [YGR058W 101-114]

More lines, now with the values behind:

Binder	normalised SPOT signal, Boehringer light units (BLU); mean over the file's lines of this peptide [1]	normalised SPOT signal, Boehringer light units (BLU); mean over the file's lines of this peptide [2]	normalised SPOT signal, Boehringer light units (BLU); mean over the file's lines of this peptide [3]	normalised SPOT signal, Boehringer light units (BLU); mean over the file's lines of this peptide [4]	normalised SPOT signal, Boehringer light units (BLU); mean over the file's lines of this peptide [5]	normalised SPOT signal, Boehringer light units (BLU); mean over the file's lines of this peptide [6]	normalised SPOT signal, Boehringer light units (BLU); mean over the file's lines of this peptide [7]
KQSKRARPSSPYTV [YOR153W 486-499]	291	11.9	271	102	99.9	462	66.6
KNLKKYDPEDPNRR [YPL093W 383-396]	656	0	207	121	76.6	45.8	71.3
KQLMKNLPKIPLLN [YDR228C 355-368]	594	9.8	580	130	36400	794	95.2
KQAKRAPPSSPYVV [YDR406W 496-509]	470	2.9	295	19.4	127	152	20.9
KNLLREIPQVPAFQ [YLR077W 141-154]	196	6.5	104	2030	84.8	1080	142
KQLKKQGPKRPSSA [YKL032C 354-367]	767	28.7	468	80.4	151	751	109
KMSAKNTPKHPVDI [YPL082C 209-222]	1220	42.3	307	301	102	978	332
KQKKKPTPTRPYNY [YKL089W 339-352]	33.6	26.3	516	31.6	97.1	680	44.3
KNIIKYVPWGPPLE [YLR142W 425-438]	0	13.9	164	16.2	33.3	1.3	26.6

Reference: publication PMC314469, “Protein Interaction Networks by Proteome Peptide Scanning” (PLoS Biology, 2004)
